Laboratory results from the RNAGym collection of RNA variant scans (doi:10.7554/elife.80360).

B1: HDV Ribozyme (parent)
chain: GGCCGGCAUGGUCCCAGCCUCCUCGCUGGCGCCGGCUGGGCAACAUUCCGAGGGGACCGUCCCCUCGGUAAUGGCGAAUGGGACCCA

Variants of: B1
Test: self-cleavage, relative activity (ratio to wild type); higher = more cleavage; co-transcriptional

Row | Variant | self-cleavage
1 | G38C A70U | 0.185
2 | G38C A70C | 0.291
3 | G38C A71C | 0.231
4 | U37A G80A | 0.145
5 | U37A G80U | 0.0727
6 | U37A G73C | 0.0378
7 | U37A G73A | 0.0346
8 | U37A G73U | 0.225
9 | U37A C41A | 0.237
10 | G38A U60C | 0.0272
11 | G38A U60G | 0.0386
12 | G38A U47C | 0.0767
13 | U37C C41A | 0.929
14 | U37C C41U | 1.29
15 | U37A U69A | 0.101
16 | U37A U69C | 0.415
17 | U37A G54C | 0.308
18 | G38A G73A | 0.0875
19 | G38A A51U | 0.268
20 | G38A A51C | 0.212
21 | G38C C63U | 0.194
22 | U37G C44G | 0.0692
23 | U37G C44A | 0.0791
24 | U37G C57U | 0.0405

Row | Variant | self-cleavage
25 | U37C G73C | 0.356
26 | U37C G73U | 0.185
27 | U37C G73A | 0.493
28 | U37A U79G | 0
29 | U37A U79C | 0.0623
30 | U37C G76A | 0.972
31 | G38A | 0.157
32 | G38C | 0.239
33 | G38C A87U | 0.252
34 | G38C A87G | 0.155
35 | U37A G67A | 0.215
36 | U37A G67U | 0.272
37 | U37C C44A | 0.499
38 | U37C C44G | 0.63
39 | G38A G55A | 0.0821
40 | G38A G55U | 0.19
41 | U37G C58G | 0.369
42 | U37G C58A | 0.145
43 | U37G C58U | 0.0504
44 | G38A U69G | 0.166
45 | G38A U69A | 0.148
46 | U37C C57U | 0.875
47 | U37C C57A | 1
48 | U37A A70C | 0.0639

Row | Variant | self-cleavage
49 | U37A A70U | 0.196
50 | U37A G59A | 0.237
51 | U37A G59C | 0.224
52 | G38A A87G | 0.219
53 | G38A A87C | 0.0881
54 | U37A G82C | 0.0405
55 | G38A C61U | 0.0573
56 | G38A G76C | 0.0767
57 | G38A G76U | 0.202
58 | G38A G76A | 0.112
59 | U37G C85A | 0.0875
60 | G38A A45C | 0.0804
61 | U37A C63G | 0.17
62 | U37A C63A | 0.116
63 | G38A U79A | 0.0831
64 | U37G C66G | 0.135
65 | U37G C66A | 0.199
66 | U37G G40A | 0.302
67 | U37G G40C | 0.0519
68 | U37C G50U | 0.923
69 | U37C C84A | 0.697
70 | U37C C84G | 0.587
71 | G38A A83U | 0.13
72 | G38C C64G | 0.415

Row | Variant | self-cleavage
73 | U37A C84A | 0.128
74 | U37A G52A | 0.145
75 | U37A G52U | 0.214
76 | U37C C66A | 1.25
77 | G38A C58U | 0.175
78 | U37C G53U | 1.13
79 | U37G A51U | 0
80 | U37G A51C | 0.0504
81 | U37A G53U | 0.302
82 | U37A G53A | 0.0594
83 | G38A G52U | 0.245
84 | U37A U47A | 0.201
85 | U37C A56G | 1.23
86 | U37C A56U | 1.09
87 | U37C A70G | 1.23
88 | U37G A77G | 0.0831
89 | U37G A77C | 0.158
90 | U37G C63G | 0.0615
91 | U37G C63U | 0.151
92 | U37A C66G | 0.158
93 | U37G G50U | 0.135
94 | U37G G50C | 0.185
95 | U37G G50A | 0.113
96 | U37A A71G | 0.128

Row | Variant | self-cleavage
97 | U37G C75G | 0
98 | U37G A83G | 0.138
99 | U37G A83U | 0.156
100 | U37G A83C | 0.0678
101 | U37G G55A | 0.0831
102 | U37G G55C | 0.141
103 | U37G G55U | 0.214
104 | U37G U47A | 0.158
105 | U37G U47C | 0.128
106 | U37G U60G | 0.0831
107 | U37G G39U | 0
108 | G38C A78U | 0.0308
109 | U37A U72C | 0
110 | U37G A45G | 0.0692
111 | G38A G39A | 0.0963
112 | G38A G39C | 0.0923
113 | U37G U72G | 0.115
114 | U37C A83C | 0.383
115 | U37G C61U | 0.138
116 | U37G G73C | 0.0791
117 | U37G G73A | 0
118 | U37A A78G | 0.131
119 | U37C A51C | 0.966
120 | U37C A51U | 0.923

Row | Variant | self-cleavage
121 | G38A A43C | 0.0449
122 | G38C C61U | 0.136
123 | G38C C49U | 0.277
124 | G38C C58G | 0.237
125 | G38C C58A | 0.361
126 | U37C A43C | 0.308
127 | G38A G50A | 0.0886
128 | G38A G50U | 0.157
129 | U37C G67A | 1
130 | U37C G40C | 0.262
131 | U37C G40U | 0.456
132 | U37G A43G | 0
133 | U37G A43C | 0.133
134 | U37G A43U | 0.208
135 | U37C A42G | 0.795
136 | U37G G82U | 0.0773
137 | U37G G82C | 0.128
138 | G38A G74A | 0.0755
139 | G38A G74U | 0.0934
140 | U37C C49A | 1.31
141 | U37C C49U | 0.928
142 | U37G U65C | 0.123
143 | U37C U65C | 1.05
144 | U37C U65A | 0.929

Row | Variant | self-cleavage
145 | U37C U72A | 0.356
146 | U37C U72C | 0.462
147 | U37C U72G | 0.429
148 | U37G C48A | 0.277
149 | U37G G52U | 0.198
150 | G38A C41U | 0.354
151 | G38A C41A | 0.185
152 | G38A C66G | 0.109
153 | G38A C66U | 0.128
154 | G38C C48U | 0.161
155 | G38C C48G | 0.133
156 | G38C C48A | 0.104
157 | G38A C84A | 0.185
158 | U37G C86A | 0.185
159 | G38C C62A | 0.354
160 | G38C C62G | 0.208
161 | U37A G39C | 0
162 | U37C G74C | 0.193
163 | U37A U60A | 0.111
164 | U37A U60C | 0.192
165 | U37C U46G | 0.787
166 | U37C U46C | 0.914
167 | G38A G54A | 0.273
